# Results taken from paper PMC10502012 (2023).
# No end group written: not given here. PEG = not defined here; Cy5 = Cy5 dye
# Target: chicken PHT1 (purified, wild type) (chicken)
# Assay: not given
# Chain of chicken PHT1 (purified, wild type) (chicken) (chain, as listed by the source): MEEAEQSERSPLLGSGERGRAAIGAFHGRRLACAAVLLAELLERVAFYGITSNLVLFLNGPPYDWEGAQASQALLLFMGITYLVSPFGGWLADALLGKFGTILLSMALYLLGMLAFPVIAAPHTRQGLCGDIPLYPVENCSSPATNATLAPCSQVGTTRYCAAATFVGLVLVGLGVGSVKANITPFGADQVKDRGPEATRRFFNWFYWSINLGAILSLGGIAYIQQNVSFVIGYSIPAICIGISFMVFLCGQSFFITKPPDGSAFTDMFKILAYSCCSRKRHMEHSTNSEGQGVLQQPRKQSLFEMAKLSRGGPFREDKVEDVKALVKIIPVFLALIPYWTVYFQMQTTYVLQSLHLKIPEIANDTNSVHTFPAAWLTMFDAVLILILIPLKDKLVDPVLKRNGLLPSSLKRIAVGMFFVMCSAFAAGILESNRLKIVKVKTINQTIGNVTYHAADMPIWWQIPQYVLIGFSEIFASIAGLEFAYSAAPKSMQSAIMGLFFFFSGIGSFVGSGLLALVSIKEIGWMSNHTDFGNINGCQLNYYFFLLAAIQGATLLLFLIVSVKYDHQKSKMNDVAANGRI
row,Kd [nM],Binder
1,690,MLAEGYLYRIAYL [TASL 1-13 S3A]
2,310,MLSEGYAYRIAYL [TASL 1-13 L7A]
3,710,MLSEGYLYRIAYLGS [TASL 1-13-GS]
4,9110,LSEGYLYRIAYL [TASL 2-13]
5,1740,MLSEGYLYRIAY [TASL 1-12]
6,580,MLSEGYLYRIAYLGSGS [TASL 1-13-GSGS]
7,7280,MASEGYLYRIAYL [TASL 1-13 L2A]
8,7630,SEGYLYRIAYL [TASL 3-13]
9,15400,ALSEGYLYRIAYL [TASL 1-13 M1A]
10,3360,MLSEGYLYAIAYL [TASL 1-13 R9A]
11,400,MLSEGYLYRIAYLA [TASL 1-14 C14A]
12,410,MLSEGYLYRIAYLGSGSGS [TASL 1-13-GSGSGS]
13,10500,EGYLYRIAYL [TASL 4-13]
14,2120,MLSEGYLARIAYL [TASL 1-13 Y8A]
15,1530,MLSEGALYRIAYL [TASL 1-13 Y6A]

# Target: chicken PHT1 (purified, wild type) (chicken)
# Assay: MST
row,Kd [nM],Binder
1,361,MLSEGYLYRIAYL-{PEG-Cy5} (reading uncertain) [fluorescently labeled TASL_(1-13) peptide]

# Target: chicken PHT1 (purified, wild type) (chicken)
# Assay: not given
# Remark: another data set of the same source
row,Kd [nM],Binder
1,4050,MLSEGYLYRIAYLCEDSELCT [TASL peptide with a length of 21 residues]
2,1760,MLSEGYLYRIAYLCE [TASL peptide with a length of 15 residues]
3,1350,MLSEGYLYRIAYLCEDS [TASL peptide with a length of 17 residues]
